Where two headings read alike, the source gives them in different places. Each block holds one binder with its values, some of them ahead of it. No end group written: not given here.
Tests used:
[1] = molecular target: T1, furin (UniProt P09958 108-715)
[2] = molecular target: T2, PC1/3 (UniProt P29120 111-753); experiment: enzyme inhibition
T2 chain: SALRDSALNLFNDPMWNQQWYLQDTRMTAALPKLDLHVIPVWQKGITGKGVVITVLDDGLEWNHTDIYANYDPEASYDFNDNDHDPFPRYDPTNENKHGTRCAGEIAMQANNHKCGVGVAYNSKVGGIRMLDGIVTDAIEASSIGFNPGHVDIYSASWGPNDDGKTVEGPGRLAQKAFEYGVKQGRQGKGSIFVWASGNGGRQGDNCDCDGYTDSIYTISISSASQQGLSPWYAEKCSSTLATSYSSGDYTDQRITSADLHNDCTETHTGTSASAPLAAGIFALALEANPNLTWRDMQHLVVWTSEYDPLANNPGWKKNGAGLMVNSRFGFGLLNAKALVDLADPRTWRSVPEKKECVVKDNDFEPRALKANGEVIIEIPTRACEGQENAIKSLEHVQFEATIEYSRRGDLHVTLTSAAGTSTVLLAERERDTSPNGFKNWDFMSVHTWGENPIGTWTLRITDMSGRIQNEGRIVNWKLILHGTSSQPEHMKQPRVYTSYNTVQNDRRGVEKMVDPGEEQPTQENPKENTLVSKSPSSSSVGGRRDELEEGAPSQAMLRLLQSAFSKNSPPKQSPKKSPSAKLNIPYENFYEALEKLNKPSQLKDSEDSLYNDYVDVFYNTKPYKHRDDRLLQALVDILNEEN

[3] = molecular target: T1, furin; experiment: enzyme inhibition
[4] = molecular target: T3, PC5/6 (UniProt Q92824 115-913); experiment: enzyme inhibition
T3 chain: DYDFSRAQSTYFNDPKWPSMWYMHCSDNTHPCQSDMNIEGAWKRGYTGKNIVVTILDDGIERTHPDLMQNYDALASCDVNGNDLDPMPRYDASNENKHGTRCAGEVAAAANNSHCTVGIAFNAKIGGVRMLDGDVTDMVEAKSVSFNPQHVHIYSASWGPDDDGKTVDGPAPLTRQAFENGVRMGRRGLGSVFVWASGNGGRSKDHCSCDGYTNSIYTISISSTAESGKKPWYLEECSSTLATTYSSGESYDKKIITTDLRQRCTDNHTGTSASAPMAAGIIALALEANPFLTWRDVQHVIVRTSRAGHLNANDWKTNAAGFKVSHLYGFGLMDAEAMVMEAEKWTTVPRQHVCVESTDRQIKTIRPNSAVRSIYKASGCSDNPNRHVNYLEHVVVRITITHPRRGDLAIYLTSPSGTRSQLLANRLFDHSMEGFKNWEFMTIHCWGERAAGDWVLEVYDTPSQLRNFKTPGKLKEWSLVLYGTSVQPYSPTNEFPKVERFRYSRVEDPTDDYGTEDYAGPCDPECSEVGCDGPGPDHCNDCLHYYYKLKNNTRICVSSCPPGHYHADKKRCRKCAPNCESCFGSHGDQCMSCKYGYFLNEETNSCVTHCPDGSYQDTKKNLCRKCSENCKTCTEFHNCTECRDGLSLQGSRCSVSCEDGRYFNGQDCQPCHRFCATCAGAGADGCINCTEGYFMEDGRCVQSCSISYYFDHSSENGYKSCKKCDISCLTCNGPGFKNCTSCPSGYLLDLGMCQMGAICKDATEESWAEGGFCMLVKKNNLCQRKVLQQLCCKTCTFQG

[5] = molecular target: T4, PC7 (UniProt Q16549 142-667); experiment: enzyme inhibition
T4 chain: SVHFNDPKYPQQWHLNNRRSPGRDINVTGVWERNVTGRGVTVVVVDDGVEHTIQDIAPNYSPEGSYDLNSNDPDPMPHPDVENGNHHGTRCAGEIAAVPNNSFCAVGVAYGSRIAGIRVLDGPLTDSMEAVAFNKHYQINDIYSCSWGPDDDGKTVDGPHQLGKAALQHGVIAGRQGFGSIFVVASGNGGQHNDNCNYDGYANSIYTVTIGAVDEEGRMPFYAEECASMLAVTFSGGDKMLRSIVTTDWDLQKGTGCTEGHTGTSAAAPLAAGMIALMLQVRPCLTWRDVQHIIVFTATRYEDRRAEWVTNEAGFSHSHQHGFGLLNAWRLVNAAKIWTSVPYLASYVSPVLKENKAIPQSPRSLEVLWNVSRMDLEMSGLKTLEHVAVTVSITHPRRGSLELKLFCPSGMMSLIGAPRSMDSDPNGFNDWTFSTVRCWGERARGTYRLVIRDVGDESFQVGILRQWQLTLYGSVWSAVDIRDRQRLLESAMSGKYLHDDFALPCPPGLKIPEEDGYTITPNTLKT

[6] = molecular target: T5, PACE4 (UniProt P29122 150-969); experiment: enzyme inhibition
T5 chain: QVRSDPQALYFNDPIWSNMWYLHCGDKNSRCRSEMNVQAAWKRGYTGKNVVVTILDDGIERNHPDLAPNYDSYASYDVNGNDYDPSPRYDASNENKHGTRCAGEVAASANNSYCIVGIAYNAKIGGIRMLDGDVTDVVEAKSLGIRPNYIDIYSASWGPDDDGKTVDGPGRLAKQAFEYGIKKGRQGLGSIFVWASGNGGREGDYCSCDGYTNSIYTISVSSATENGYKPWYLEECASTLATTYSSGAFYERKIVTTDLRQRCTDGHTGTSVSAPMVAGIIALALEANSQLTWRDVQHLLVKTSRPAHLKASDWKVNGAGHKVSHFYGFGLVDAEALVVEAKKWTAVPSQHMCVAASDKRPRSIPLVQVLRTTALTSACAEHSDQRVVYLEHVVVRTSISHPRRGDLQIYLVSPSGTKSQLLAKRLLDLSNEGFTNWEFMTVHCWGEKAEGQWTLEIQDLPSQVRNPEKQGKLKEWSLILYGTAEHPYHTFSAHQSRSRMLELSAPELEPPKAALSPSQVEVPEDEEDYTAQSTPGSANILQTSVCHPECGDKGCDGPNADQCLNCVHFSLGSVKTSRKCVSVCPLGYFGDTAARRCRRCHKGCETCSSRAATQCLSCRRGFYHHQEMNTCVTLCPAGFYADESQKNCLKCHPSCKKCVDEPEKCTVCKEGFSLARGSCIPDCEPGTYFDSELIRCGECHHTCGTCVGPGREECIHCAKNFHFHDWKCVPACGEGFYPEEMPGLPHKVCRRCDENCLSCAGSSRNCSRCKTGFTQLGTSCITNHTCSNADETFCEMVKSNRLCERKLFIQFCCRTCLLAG

[7] = molecular target: T6, PC2 (UniProt P16519 110-638); experiment: enzyme inhibition
T6 chain: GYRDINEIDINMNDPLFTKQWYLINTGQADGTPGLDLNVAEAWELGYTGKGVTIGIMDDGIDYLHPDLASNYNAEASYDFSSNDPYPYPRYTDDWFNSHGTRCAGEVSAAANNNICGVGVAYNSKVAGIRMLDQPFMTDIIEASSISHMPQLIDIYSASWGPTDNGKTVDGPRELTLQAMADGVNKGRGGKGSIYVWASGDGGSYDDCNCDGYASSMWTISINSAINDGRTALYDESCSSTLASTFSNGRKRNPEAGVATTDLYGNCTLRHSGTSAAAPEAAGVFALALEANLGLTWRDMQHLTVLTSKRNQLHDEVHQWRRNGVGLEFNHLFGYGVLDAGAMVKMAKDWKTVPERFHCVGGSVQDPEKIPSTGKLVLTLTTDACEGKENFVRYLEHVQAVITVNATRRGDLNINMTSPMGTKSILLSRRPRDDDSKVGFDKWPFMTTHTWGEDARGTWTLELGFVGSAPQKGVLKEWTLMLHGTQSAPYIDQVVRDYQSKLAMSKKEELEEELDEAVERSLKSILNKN

T1 sequence (P09958 108-715): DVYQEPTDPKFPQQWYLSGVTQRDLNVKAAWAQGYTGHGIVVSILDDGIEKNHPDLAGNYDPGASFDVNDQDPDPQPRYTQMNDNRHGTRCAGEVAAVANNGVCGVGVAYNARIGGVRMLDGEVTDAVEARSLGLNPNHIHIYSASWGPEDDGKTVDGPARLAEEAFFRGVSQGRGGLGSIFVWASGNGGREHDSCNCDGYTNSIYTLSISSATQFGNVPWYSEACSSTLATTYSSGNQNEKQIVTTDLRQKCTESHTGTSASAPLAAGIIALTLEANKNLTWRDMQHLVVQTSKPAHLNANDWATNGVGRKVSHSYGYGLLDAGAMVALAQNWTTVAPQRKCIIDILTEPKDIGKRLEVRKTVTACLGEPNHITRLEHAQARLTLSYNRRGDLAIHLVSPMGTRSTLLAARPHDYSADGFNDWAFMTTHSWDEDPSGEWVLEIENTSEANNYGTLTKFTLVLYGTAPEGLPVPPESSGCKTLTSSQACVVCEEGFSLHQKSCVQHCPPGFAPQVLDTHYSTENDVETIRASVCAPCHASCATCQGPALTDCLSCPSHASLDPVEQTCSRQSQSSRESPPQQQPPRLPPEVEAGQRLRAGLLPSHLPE

B1: LLLLRVKR-NH2 (peptide)
peptide: LLLLRVKR-NH2
Ki [1]: 1140 nM

B2: LRVKR-NH2 (peptide)
peptide: LRVKR-NH2
Ki [2]: 580 nM | Ki [3]: 550 nM | Ki [4]: 360 nM | Ki [5]: 2490 nM

B3: RVKR-NH2 (peptide)
peptide: RVKR-NH2
Ki [2]: 1450 nM | Ki [3]: 8110 nM | Ki [4]: 5570 nM | Ki [6]: 4340 nM | Ki [5]: 10400 nM

B6: LLRVKR-NH2 (peptide)
peptide: LLRVKR-NH2
Ki [2]: 170 nM | Ki [7]: 3270 nM | Ki [4]: 130 nM | Ki [5]: 100 nM | Ki [1]: 540 nM

Other lines, results leading:

Ki [2]: 370 nM | Ki [3]: 1500 nM | Ki [7]: 4830 nM | Ki [5]: 40 nM
B4: LLLLLRVKR-NH2 (peptide)
peptide: LLLLLRVKR-NH2

Ki [2]: 1160 nM | Ki [3]: 1390 nM | Ki [7]: 4550 nM | Ki [5]: 30 nM
B5: LLLLLLRVKR-NH2 (peptide)
peptide: LLLLLLRVKR-NH2

Ki [2]: 240 nM | Ki [3]: 980 nM | Ki [7]: 12900 nM | Ki [4]: 340 nM | Ki [5]: 50 nM
B7: LLLRVKR-NH2 (peptide)
peptide: LLLRVKR-NH2

Reference: patent publication US20110178027A1 (published 2011)
